Measurements: paper PMC12441119

T1: HOIP (residues 854–1072), Q96EP0
T1 chain: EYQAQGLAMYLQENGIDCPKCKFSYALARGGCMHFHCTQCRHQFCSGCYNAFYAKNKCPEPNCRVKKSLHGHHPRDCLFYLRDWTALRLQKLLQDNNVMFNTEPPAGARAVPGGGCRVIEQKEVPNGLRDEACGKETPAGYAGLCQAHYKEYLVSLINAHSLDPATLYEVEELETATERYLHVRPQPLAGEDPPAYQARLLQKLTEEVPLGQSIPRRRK


Target: T1, HOIP (residues 854–1072), Q96EP0
Assay: ITC
Conditions: chain shown with the change

| Kd [µM] | Binder |
| --- | --- |
| 20.9 | STK4 (residues 11–326) wild type K59R (protein) RRQLKKLDEDSLTKQPEEVFDVLEKLGEGSYGSVYKAIHKETGQIVAIRQVPVESDLQEIIKEISIMQQCDSPHVVKYYGSYFKNTDLWIVMEYCGAGSVSDIIRLRNKTLTEDEIATILQSTLKGLEYLHFMRKIHRDIKAGNILLNTEGHAKLADFGVAGQLTDTMAKRNTVIGTPFWMAPEVIQEIGYNCVADIWSLGITAIEMAEGKPPYADIHPMRAIFMIPTNPPPTFRKPELWSDNFTDFVKQCLVKSPEQRATATQLLQHPFVRSAKGVSILRDLINEAMDVKLKRQESQQREVDQDDEENSEEDEMD |
| 115 | STK4 (residues 1–487) wild type K59R (protein) METVQLRNPPRRQLKKLDEDSLTKQPEEVFDVLEKLGEGSYGSVYKAIHKETGQIVAIRQVPVESDLQEIIKEISIMQQCDSPHVVKYYGSYFKNTDLWIVMEYCGAGSVSDIIRLRNKTLTEDEIATILQSTLKGLEYLHFMRKIHRDIKAGNILLNTEGHAKLADFGVAGQLTDTMAKRNTVIGTPFWMAPEVIQEIGYNCVADIWSLGITAIEMAEGKPPYADIHPMRAIFMIPTNPPPTFRKPELWSDNFTDFVKQCLVKSPEQRATATQLLQHPFVRSAKGVSILRDLINEAMDVKLKRQESQQREVDQDDEENSEEDEMDSGTMVRAVGDEMGTVRVASTMTDGANTMIEHDDTLPSQLGTMVINAEDEEEEGTMKRRDETMQPAKPSFLEYFEQKEKENQINSFGKSVPGPLKNSSDWKIPQDGDYEFLKSWTVEDLQKRLLALDPMMEQEIEEIRQKYQSKRQPILDAIEAKKRRQQNF |
| 28.5 | STK4 (residues 1–326) wild type K59R (protein) METVQLRNPPRRQLKKLDEDSLTKQPEEVFDVLEKLGEGSYGSVYKAIHKETGQIVAIRQVPVESDLQEIIKEISIMQQCDSPHVVKYYGSYFKNTDLWIVMEYCGAGSVSDIIRLRNKTLTEDEIATILQSTLKGLEYLHFMRKIHRDIKAGNILLNTEGHAKLADFGVAGQLTDTMAKRNTVIGTPFWMAPEVIQEIGYNCVADIWSLGITAIEMAEGKPPYADIHPMRAIFMIPTNPPPTFRKPELWSDNFTDFVKQCLVKSPEQRATATQLLQHPFVRSAKGVSILRDLINEAMDVKLKRQESQQREVDQDDEENSEEDEMD |
